For two molecules, Kd and koff results are on record in publication PMC12823420 (2024).

Where two headings read alike, the source gives them in different places. Where no end group is shown, it is not given here.

The target in assay [1] is T1, UAP56 (human, UniProt Q13838 1-428). The assay is described as follows: RNA + AMP-PNP.
The target of assay [2] is T1, UAP56. The experiment in a line: AMP-PNP.
Assay [3] has as its target T1, UAP56. The experiment in a line: AMP-PNP. The source holds these as a separate data set.
For assay [4], the target named is T1, UAP56. The experiment in a line: RNA + AMP-PNP. This is another data set of the same source.
Assay [5] has as its target T1, UAP56.

For SISRKSEDDEKLKKRKERFGIVTS (also: biotinylated, site not given here) [SARNP UCM-4 peptide, biotinylated], the values for the Kd with UAP56 [1] and with UAP56 [2] were 12 µM and 11 µM, respectively. The koff is 0.83 s⁻¹ with UAP56 [3], 1.68 s⁻¹ in the assay with UAP56 [4] and 1.39 s⁻¹ with UAP56 [5].

As for VDVAAEKKVVKITSEIPQTERMQKRAERFNVPVS (also: biotinylated, site not given here) [SARNP UCM-1 peptide, biotinylated], the Kd with UAP56 [1] is 13 µM; with UAP56 [2] it was 12 µM. The koff is 2.67 s⁻¹ with UAP56 [4] and 3.44 s⁻¹ with UAP56 [5].

What is called Kd is the free concentration of one partner at which half of the binding sites on the other are occupied at equilibrium, for simple one-to-one binding. By koff is commonly meant the rate constant with which the complex falls apart.
